From patent publication US20140087995A1 (published 2014)
One block for each binder: values may come before it. Numbered stars: 1 amine (or outer) side, 2 acyl side, 3 side chain; on linkers, the order of the positions; unused ones are H or OH. Bridge positions count the residues as written; N and C are the ends. Side chains are listed from the residue outwards. Ends that are not written are not given here. * marks the point of attachment. C20 diacid = O=C(O)CCCCCCCCCCCCCCCCCCC(=O)*; γGlu = O=C(O)[C@H](CCC(=O)[*:2])N[*:1]; AEEA = NCCOCCOCC(=O)O

Assays:
[1] = target: T1, human calcitonin receptor (human, UniProt P30988 25-474); test: cell-based or functional assay
T1 sequence (looked up): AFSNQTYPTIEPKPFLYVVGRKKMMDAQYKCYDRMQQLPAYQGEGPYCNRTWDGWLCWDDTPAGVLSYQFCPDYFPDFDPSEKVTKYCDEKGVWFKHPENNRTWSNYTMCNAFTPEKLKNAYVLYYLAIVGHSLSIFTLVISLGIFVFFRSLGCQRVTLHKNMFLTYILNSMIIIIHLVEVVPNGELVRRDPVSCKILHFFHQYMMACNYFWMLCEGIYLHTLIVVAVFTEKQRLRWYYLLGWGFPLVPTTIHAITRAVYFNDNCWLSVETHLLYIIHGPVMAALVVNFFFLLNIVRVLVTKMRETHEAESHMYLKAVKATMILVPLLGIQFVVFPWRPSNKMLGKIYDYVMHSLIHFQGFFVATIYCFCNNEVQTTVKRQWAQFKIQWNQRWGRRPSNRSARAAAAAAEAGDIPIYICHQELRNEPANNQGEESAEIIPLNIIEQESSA

[2] = target: T2, human amylin receptor (amylin 3(a) receptor: human calcitonin receptor plus RAMP-3) (human, UniProt P30988 25-474; O60896 24-148); test: cell-based or functional assay
T2 sequence (looked up) 1: T1 sequence (looked up)
T2 sequence (looked up) 2: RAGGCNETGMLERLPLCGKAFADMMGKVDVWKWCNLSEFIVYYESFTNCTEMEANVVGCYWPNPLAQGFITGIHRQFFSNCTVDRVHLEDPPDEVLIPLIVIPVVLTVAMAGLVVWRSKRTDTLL

[3] = target: T2, human amylin receptor (amylin 3(a) …); test: SPA competition, displacement of 125I-rat amylin from membranes of BHK cells with human calcitonin receptor + RAMP-3 (Assay V)
Method: The binding assay was performed using scintillation proximity assay (SPA) beads (RPNQ0001) from PerkinElmer and cell membranes from the Amylin 3(a)/CRE-luc cells (as described in Assay (II)) were used. Membranes were prepared in the following way; the cells were rinsed with PBS and incubated with Versene for approximately 5 min before harvesting. The cells were flushed with PBS and the cell-suspension was centrifuged for 5 min at 1000 rpm. Cells were homogenized (ultrathurrax) in a buffer containing 20 mM Na-HEPES and 10 mM EDTA (pH 7.4) and centrifuged at 20.000 rpm for 15 min. The resulting pellet was resuspended, homogenized and centrifuged (20.000 rpm, 15 min) in a buffer containing 20 mM Na-HEPES and 0.1 mM EDTA (pH 7.4, buffer 2). The resulting pellet was resuspended in buffer 2 and protein concentration was measured (BCA protein Assay, Pierce). The homogenate was kept cold during the whole procedure. The membranes were kept at −80° C. until use. The assay was performed in a 384 well Optiplate (PerkinElmer) in a total volume of 40 ul. Membranes were mixed with SPA beads. Final concentration of membranes 35 ng/μL final and SPA beads was 0.05 mg/well. Test-compounds were dissolved in DMSO and further diluted in assay buffer (50 mM Hepes, pH 7.4, 1 mM CaCl2, 5 mM MgCl₂, 0.1% OA and 0.02% Tween20). […] The final mixture was incubated with shaking at 400 rpm for 120 min at 25° C. prior to centrifugation (1500 rpm, 10 min). Samples were analyzed on TopCounter™ (Packard). The IC₅₀ was calculated using (one site binding competition analysis) GraphPad Prism5 as a measure of receptor affinity.

[4] = target: T3, human amylin 3(a) receptor (human calcitonin receptor co-expressed with RAMP-3) (human, UniProt P30988 25-474; O60896 24-148, limits assumed); test: cell-based or functional assay
T3 sequence (looked up) 1: T1 sequence (looked up)
T3 sequence (looked up) 2: T2 sequence (looked up) 2

[5] = target: T4, human calcitonin receptor (human, UniProt P30988 25-474); test: cell-based or functional assay; remark: listed apart in the source
T4 sequence (looked up): T1 sequence (looked up)

rat calcitonin receptor = target: T5, rat calcitonin receptor (rat, UniProt P32214 25-516); test: SPA competition binding, displacement of 125I-Calcitonin from membranes of BHK tk'ts 13 cells with rat calcitonin receptor (Assay VIII)
T5 construct: whole, on cells; In cell membranes prepared from transiently transfected BHK tk'ts 13 cells (Assay VIII); also called rCTR; rat calcitonin (a) receptor
T5 sequence (looked up): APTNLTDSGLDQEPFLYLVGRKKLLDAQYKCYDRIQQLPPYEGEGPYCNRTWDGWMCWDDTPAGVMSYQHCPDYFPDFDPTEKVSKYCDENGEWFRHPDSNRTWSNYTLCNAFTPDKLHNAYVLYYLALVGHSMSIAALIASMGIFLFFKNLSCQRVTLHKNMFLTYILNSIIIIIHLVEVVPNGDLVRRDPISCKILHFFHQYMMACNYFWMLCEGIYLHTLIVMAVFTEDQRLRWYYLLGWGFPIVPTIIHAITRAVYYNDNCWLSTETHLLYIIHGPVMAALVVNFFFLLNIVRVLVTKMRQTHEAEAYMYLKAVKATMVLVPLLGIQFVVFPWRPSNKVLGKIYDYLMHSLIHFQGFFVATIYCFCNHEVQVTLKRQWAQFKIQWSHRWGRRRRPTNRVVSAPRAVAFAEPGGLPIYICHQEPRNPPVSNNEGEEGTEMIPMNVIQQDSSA

hCTR funct. EC50 (pM) [1]: 1320 pM | Ratio hCT/hAmylin funct. [2]: 6 | hAmylin-R funct. EC50 (pM) [2]: 222 pM | IC50 [3]: 0.344 nM
B1: N^-1-[(4S)-4-carboxy-4-(19-carboxynonadecanoylamino)butanoyl]-Gly[Arg1,Arg17,Pro21,Pro27,His35]-h-amylin (peptide)
peptide: {C20 diacid-γGlu}-GRCNTATCATQRLANFLRHSSPNFGAIPSSTNVGSHTY-NH2
modifications: disulfide 3-8
SMILES: CC[C@H](C)[C@H](NC(=O)[C@H](C)NC(=O)CNC(=O)[C@H](Cc1ccccc1)NC(=O)[C@H](CC(N)=O)NC(=O)[C@@H]1CCCN1C(=O)[C@H](CO)NC(=O)[C@H](CO)NC(=O)[C@H](Cc1c[nH]cn1)NC(=O)[C@H](CCCNC(=N)N)NC(=O)[C@H](CC(C)C)NC(=O)[C@H](Cc1ccccc1)NC(=O)[C@H](CC(N)=O)NC(=O)[C@H](C)NC(=O)[C@H](CC(C)C)NC(=O)[C@H](CCCNC(=N)N)NC(=O)[C@H](CCC(N)=O)NC(=O)[C@@H](NC(=O)[C@H](C)NC(=O)[C@@H]1CSSC[C@H](NC(=O)[C@H](CCCNC(=N)N)NC(=O)CNC(=O)CC[C@H](NC(=O)CCCCCCCCCCCCCCCCCCC(=O)O)C(=O)O)C(=O)N[C@@H](CC(N)=O)C(=O)N[C@@H]([C@@H](C)O)C(=O)N[C@@H](C)C(=O)N[C@@H]([C@@H](C)O)C(=O)N1)[C@@H](C)O)C(=O)N1CCC[C@H]1C(=O)N[C@@H](CO)C(=O)N[C@@H](CO)C(=O)N[C@H](C(=O)N[C@@H](CC(N)=O)C(=O)N[C@H](C(=O)NCC(=O)N[C@@H](CO)C(=O)N[C@@H](Cc1c[nH]cn1)C(=O)N[C@H](C(=O)N[C@@H](Cc1ccc(O)cc1)C(N)=O)[C@@H](C)O)C(C)C)[C@@H](C)O
notes: N-terminal extension by Gly at position -1; also called compound 47

Ratio hCT/hAmylin funct. [4]: 8.9 | hCTR funct. EC50 [5]: 3.43 nM
B3: N^α1-[(4S)-4-carboxy-4-[[(4S)-4-carboxy-4-(19-carboxynonadecanoylamino)butanoyl]amino]butanoyl]-[Glu14,Arg17,Pro21,Pro27]-h-amylin (peptide)
peptide: {C20 diacid-γGlu-γGlu}-KCNTATCATQRLAEFLRHSSPNFGAIPSSTNVGSNTY-NH2
modifications: disulfide 2-7
SMILES: CC[C@H](C)[C@H](NC(=O)[C@H](C)NC(=O)CNC(=O)[C@H](Cc1ccccc1)NC(=O)[C@H](CC(N)=O)NC(=O)[C@@H]1CCCN1C(=O)[C@H](CO)NC(=O)[C@H](CO)NC(=O)[C@H](Cc1c[nH]cn1)NC(=O)[C@H](CCCNC(=N)N)NC(=O)[C@H](CC(C)C)NC(=O)[C@H](Cc1ccccc1)NC(=O)[C@H](CCC(=O)O)NC(=O)[C@H](C)NC(=O)[C@H](CC(C)C)NC(=O)[C@H](CCCNC(=N)N)NC(=O)[C@H](CCC(N)=O)NC(=O)[C@@H](NC(=O)[C@H](C)NC(=O)[C@@H]1CSSC[C@H](NC(=O)[C@H](CCCCN)NC(=O)CC[C@H](NC(=O)CC[C@H](NC(=O)CCCCCCCCCCCCCCCCCCC(=O)O)C(=O)O)C(=O)O)C(=O)N[C@@H](CC(N)=O)C(=O)N[C@@H]([C@@H](C)O)C(=O)N[C@@H](C)C(=O)N[C@@H]([C@@H](C)O)C(=O)N1)[C@@H](C)O)C(=O)N1CCC[C@H]1C(=O)N[C@@H](CO)C(=O)N[C@@H](CO)C(=O)N[C@H](C(=O)N[C@@H](CC(N)=O)C(=O)N[C@H](C(=O)NCC(=O)N[C@@H](CO)C(=O)N[C@@H](CC(N)=O)C(=O)N[C@H](C(=O)N[C@@H](Cc1ccc(O)cc1)C(N)=O)[C@@H](C)O)C(C)C)[C@@H](C)O
notes: h-amylin derivative; disulfide bridge and C-terminal amide as told for human amylin; also called compound 15

IC50 (rat calcitonin receptor): 30.9 nM
Binder: KCNTATCATQRLADFLRHSSPNFGAIPSSTNVGSRTY-NH2 (disulfide 2-7) [[Asp14,Arg17,Pro21,Pro27,Arg35]-h-amylin]

The next lines start with the binder.

B2: N^α1-[(4S)-4-carboxy-4-(19-carboxynonadecanoylamino)butanoyl]-[Glu14,Arg17,Pro21,Pro27,His35]-h-amylin (peptide)
peptide: {C20 diacid-γGlu}-KCNTATCATQRLAEFLRHSSPNFGAIPSSTNVGSHTY-NH2
modifications: disulfide 2-7
SMILES: CC[C@H](C)[C@H](NC(=O)[C@H](C)NC(=O)CNC(=O)[C@H](Cc1ccccc1)NC(=O)[C@H](CC(N)=O)NC(=O)[C@@H]1CCCN1C(=O)[C@H](CO)NC(=O)[C@H](CO)NC(=O)[C@H](Cc1c[nH]cn1)NC(=O)[C@H](CCCNC(=N)N)NC(=O)[C@H](CC(C)C)NC(=O)[C@H](Cc1ccccc1)NC(=O)[C@H](CCC(=O)O)NC(=O)[C@H](C)NC(=O)[C@H](CC(C)C)NC(=O)[C@H](CCCNC(=N)N)NC(=O)[C@H](CCC(N)=O)NC(=O)[C@@H](NC(=O)[C@H](C)NC(=O)[C@@H]1CSSC[C@H](NC(=O)[C@H](CCCCN)NC(=O)CC[C@H](NC(=O)CCCCCCCCCCCCCCCCCCC(=O)O)C(=O)O)C(=O)N[C@@H](CC(N)=O)C(=O)N[C@@H]([C@@H](C)O)C(=O)N[C@@H](C)C(=O)N[C@@H]([C@@H](C)O)C(=O)N1)[C@@H](C)O)C(=O)N1CCC[C@H]1C(=O)N[C@@H](CO)C(=O)N[C@@H](CO)C(=O)N[C@H](C(=O)N[C@@H](CC(N)=O)C(=O)N[C@H](C(=O)NCC(=O)N[C@@H](CO)C(=O)N[C@@H](Cc1c[nH]cn1)C(=O)N[C@H](C(=O)N[C@@H](Cc1ccc(O)cc1)C(N)=O)[C@@H](C)O)C(C)C)[C@@H](C)O
notes: also called compound 18
hCTR funct. EC50 (pM) [1]: 742 pM | Ratio hCT/hAmylin funct. [2]: 4.8 | hAmylin-R funct. EC50 (pM) [2]: 154 pM | IC50 [3]: 0.554 nM

B4: N^ε1-[2-[2-[2-[[(4S)-4-carboxy-4-(19-carboxynonadecanoylamino)butanoyl]amino]ethoxy]ethoxy]acetyl]-[Arg17,Pro21,Pro27,Pro28,Pro34]-h-amylin (peptide)
peptide: K([AEEA-γGlu-C20 diacid])CNTATCATQRLANFLRHSSPNFGAIPPSTNVGPNTY-NH2
modifications: disulfide 2-7; N-terminus assumed
SMILES: CC[C@H](C)[C@H](NC(=O)[C@H](C)NC(=O)CNC(=O)[C@H](Cc1ccccc1)NC(=O)[C@H](CC(N)=O)NC(=O)[C@@H]1CCCN1C(=O)[C@H](CO)NC(=O)[C@H](CO)NC(=O)[C@H](Cc1c[nH]cn1)NC(=O)[C@H](CCCNC(=N)N)NC(=O)[C@H](CC(C)C)NC(=O)[C@H](Cc1ccccc1)NC(=O)[C@H](CC(N)=O)NC(=O)[C@H](C)NC(=O)[C@H](CC(C)C)NC(=O)[C@H](CCCNC(=N)N)NC(=O)[C@H](CCC(N)=O)NC(=O)[C@@H](NC(=O)[C@H](C)NC(=O)[C@@H]1CSSC[C@H](NC(=O)[C@@H](N)CCCCNC(=O)COCCOCCNC(=O)CC[C@H](NC(=O)CCCCCCCCCCCCCCCCCCC(=O)O)C(=O)O)C(=O)N[C@@H](CC(N)=O)C(=O)N[C@@H]([C@@H](C)O)C(=O)N[C@@H](C)C(=O)N[C@@H]([C@@H](C)O)C(=O)N1)[C@@H](C)O)C(=O)N1CCC[C@H]1C(=O)N1CCC[C@H]1C(=O)N[C@@H](CO)C(=O)N[C@H](C(=O)N[C@@H](CC(N)=O)C(=O)N[C@H](C(=O)NCC(=O)N1CCC[C@H]1C(=O)N[C@@H](CC(N)=O)C(=O)N[C@H](C(=O)N[C@@H](Cc1ccc(O)cc1)C(N)=O)[C@@H](C)O)C(C)C)[C@@H](C)O
notes: h-amylin derivative; disulfide bridge and C-terminal amide as told for human amylin; also called compound 55
hAmylin-R funct. EC50 [4]: 0.068 nM | hCTR funct. EC50 [5]: 0.731 nM

B5: N^ε1-[2-[2-[2-[[(4S)-4-carboxy-4-(19-carboxynonadecanoylamino)butanoyl]amino]ethoxy]ethoxy]acetyl]-[Arg17,Pro21,Pro27,Pro28,Pro31]-h-amylin (peptide)
peptide: K([AEEA-γGlu-C20 diacid])CNTATCATQRLANFLRHSSPNFGAIPPSTPVGSNTY-NH2
modifications: disulfide 2-7
notes: h-amylin derivative; disulfide bridge and C-terminal amide as told for human amylin; also called compound 53
Ratio hCT/hAmylin funct. [4]: 9.8 | hCTR funct. EC50 [5]: 0.625 nM
